Target: T1, BCMA抗原 (antigen in solution, Biacore) (UniProt Q02223 1-54, limits assumed)
T1 construct: also called B细胞成熟抗原; CD269
T1 sequence (looked up): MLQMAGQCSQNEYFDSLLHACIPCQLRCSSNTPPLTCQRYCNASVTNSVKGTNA
Assay: Biacore SPR, antibody immobilised on the chip, antigen in the mobile phase

B1: BCMA-12 VHH-mIgG2a Fc 纳米抗体 (Fc fusion)
chain: EVQLVESGGDSVQAGGSLRLSCAVSGYTDSKNLMGWFRQAPGKEREGVAVIYTGGGRPVYADSVKGRFTISQDSAKNTVYLQMNSLKPEDTALYYCAADYLGGAWPFGAYRYWGQGTQVTVSS
notes: also called BCMA VHH B12; BCMA VHH抗体; not shown: mouse IgG2a Fc tag of vector C-4 pCP.Stuffer-mCg2a-FC
Kd: 0.0634 nM
koff: 0.000429 s⁻¹
kon: 6.77e+06 M⁻¹ s⁻¹

— CN113265001A (HUADAO SHANGHAI BIOMEDICAL CO LTD, dated 2021)
